We go through two molecules from article PMC9728965, “Stomatal CO2/bicarbonate sensor consists of two interacting protein kinases, Raf-like HT1 and non-kinase-activity requiring MPK12/MPK4” (Science Advances, 2022).

Test [1] addresses T1, His-HT1 (high leaf temperature 1, Raf-like protein kinase), wild type (Arabidopsis thaliana, UniProt Q2MHE4 1-390).
T1 construct: HT1 protein kinase of Arabidopsis thaliana; UniProt Q2MHE4 is printed as the 'long form of HT1' used for the AlphaFold2 model; Expressed from pET30a(+); source: E. coli, purified (Ni resin beads); not shown: His tag, N-terminal, kept
T1 sequence (looked up): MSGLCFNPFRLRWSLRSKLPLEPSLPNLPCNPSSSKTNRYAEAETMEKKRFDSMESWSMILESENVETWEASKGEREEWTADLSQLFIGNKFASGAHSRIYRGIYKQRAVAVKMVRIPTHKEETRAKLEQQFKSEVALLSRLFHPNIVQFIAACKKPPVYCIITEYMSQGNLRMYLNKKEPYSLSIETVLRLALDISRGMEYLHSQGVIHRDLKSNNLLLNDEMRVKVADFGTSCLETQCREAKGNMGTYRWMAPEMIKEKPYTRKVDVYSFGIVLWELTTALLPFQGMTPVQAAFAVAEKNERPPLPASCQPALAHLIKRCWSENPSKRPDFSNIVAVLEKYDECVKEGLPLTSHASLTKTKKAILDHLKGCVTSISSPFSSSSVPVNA
Kind of test: pull-down; GST-MPK on glutathione Sepharose 4B beads, His-HT1 as prey; 5 ug of each protein in 200 ul of 50 mM tris-HCl pH 7.5, 150 mM NaCl, 0.1% Triton X-100, 1 mM DTT; 20 mM NaHCO3 or 20 mM NaCl (control) in all buffers including washes; room temperature; immunoblot with anti-GST and anti-His. As to conditions: both partners purified. (In general: Immunoblotting shows a protein as a band on a membrane.)

The next test has as its target T2, His-HT1-R173Q (Arabidopsis thaliana, UniProt Q2MHE4 1-390, R173Q).
T2 construct: HT1 protein kinase of Arabidopsis thaliana with R173Q (dominant allele from an EMS screen); As m1 with the point mutation; source: E. coli, purified (Ni resin beads); not shown: His tag, N-terminal, kept
T2 sequence (looked up): T1 sequence (looked up) with R173Q
Described as above. As to conditions: both partners purified.

Residue numbers refer to the chain shown, from its start.

B1: GST-MPK4 (mitogen-activated protein kinase 4) (enzyme, Arabidopsis thaliana, UniProt Q39024 1-376, looked up)
chain: MSAESCFGSSGDQSSSKGVATHGGSYVQYNVYGNLFEVSRKYVPPLRPIGRGAYGIVCAATNSETGEEVAIKKIGNAFDNIIDAKRTLREIKLLKHMDHENVIAVKDIIKPPQRENFNDVYIVYELMDTDLHQIIRSNQPLTDDHCRFFLYQLLRGLKYVHSANVLHRDLKPSNLLLNANCDLKLGDFGLARTKSETDFMTEYVVTRWYRAPELLLNCSEYTAAIDIWSVGCILGETMTREPLFPGKDYVHQLRLITELIGSPDDSSLGFLRSDNARRYVRQLPQYPRQNFAARFPNMSAGAVDLLEKMLVFDPSRRITVDEALCHPYLAPLHDINEEPVCVRPFNFDFEQPTLTEENIKELIYRETVKFNPQDSV
notes: MPK4, MAP kinase of Arabidopsis thaliana; UniProt Q39024 printed for the model; Expressed from pGEX-6P-1; source: E. coli, purified (glutathione Sepharose beads); not shown: GST, N-terminal, kept
With B1, the binding result (in test [1]; in the test with His-HT1-R173Q) was “binds” in each case.

B2: GST-MPK12 (mitogen-activated protein kinase 12) (enzyme, Arabidopsis thaliana, UniProt Q8GYQ5 1-372, looked up)
chain: MSGESSSGSTEHCIKVVPTHGGRYVQYNVYGQLFEVSRKYVPPIRPIGRGACGIVCAAVNSVTGEKVAIKKIGNAFDNIIDAKRTLREIKLLRHMDHENVITIKDIVRPPQRDIFNDVYIVYELMDTDLQRILRSNQTLTSDQCRFLVYQLLRGLKYVHSANILHRDLRPSNVLLNSKNELKIGDFGLARTTSDTDFMTEYVVTRWYRAPELLLNCSEYTAAIDIWSVGCILGEIMTGQPLFPGKDYVHQLRLITELVGSPDNSSLGFLRSDNARRYVRQLPRYPKQQFAARFPKMPTTAIDLLERMLVFDPNRRISVDEALGHAYLSPHHDVAKEPVCSTPFSFDFEHPSCTEEHIKELIYKESVKFNPDH
notes: MPK12, MAP kinase of Arabidopsis thaliana; UniProt Q8GYQ5 printed for the model; Expressed from pGEX-6P-1; source: E. coli, purified (glutathione Sepharose beads); not shown: GST, N-terminal, kept
Consider B2, for which the binding result in test [1] is “binds”.
